Assays:
LXRα = assay: cell-based or functional assay
SREBP1c = assay: cell-based or functional assay

promoter activity of ABCA1-luc in transfected H2.35 hepatoma cells (LXRα) [fold] | luciferase activity of 4×LXRE-luc in transfected H2.35 hepatoma cells, with LXRα/RXR and LXR ligand (LXRα) [fold] | luciferase activity of the FAS promoter reporter (FAS-700 luc) in transfected H2.35 hepatoma cells (SREBP1c) [fold] | Substance
2 to 3 | – | – | Flag-PGC-1α
2 to 3 | > 240 | 17 | Flag-PGC-1β (from UniProt Q8VHJ7 1-1014)

Reference: patent publication US20080206232A1
